# Reference: IntAct's records for PubMed 35512704
# B1: Speckle-type POZ protein (Homo sapiens), O43791 (parent)
# chain: MSRVPSPPPPAEMSSGPVAESWCYTQIKVVKFSYMWTINNFSFCREEMGEVIKSSTFSSGANDKLKWCLRVNPKGLDEESKDYLSLYLLLVSCPKSEVRAKFKFSILNAKGEETKAMESQRAYRFVQGKDWGFKKFIRRDFLLDEANGLLPDDKLTLFCEVSVVQDSVNISGQNTMNMVKVPECRLADELGGLWENSRFTDCCLCVAGQEFQAHKAILAARSPVFSAMFEHEMEESKKNRVEINDVEPEVFKEMMCFIYTGKAPNLDKMADDLLAAADKYALERLKVMCEDALCSNLSVENAAEILILADLHSADQLKTQAVDFINYHASDVLETSGWKSMVVSHPHLVAEAYRSLASAQCPFLGPPRKRLKQS
# partner: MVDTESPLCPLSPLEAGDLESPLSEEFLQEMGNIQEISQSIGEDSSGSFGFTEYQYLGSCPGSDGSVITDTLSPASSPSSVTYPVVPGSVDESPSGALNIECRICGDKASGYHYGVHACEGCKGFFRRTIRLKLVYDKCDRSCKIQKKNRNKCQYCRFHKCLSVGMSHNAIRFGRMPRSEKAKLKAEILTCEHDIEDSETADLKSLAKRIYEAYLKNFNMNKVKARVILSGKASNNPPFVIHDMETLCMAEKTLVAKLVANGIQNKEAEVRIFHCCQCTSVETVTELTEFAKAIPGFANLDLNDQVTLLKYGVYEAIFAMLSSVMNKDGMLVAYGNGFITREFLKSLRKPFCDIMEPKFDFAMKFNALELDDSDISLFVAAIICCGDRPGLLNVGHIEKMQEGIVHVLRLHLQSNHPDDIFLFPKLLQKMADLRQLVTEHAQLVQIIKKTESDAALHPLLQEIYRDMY
# B2: Speckle-type POZ protein (Homo sapiens), O43791 (parent)
# chain: B1 chain
# partner: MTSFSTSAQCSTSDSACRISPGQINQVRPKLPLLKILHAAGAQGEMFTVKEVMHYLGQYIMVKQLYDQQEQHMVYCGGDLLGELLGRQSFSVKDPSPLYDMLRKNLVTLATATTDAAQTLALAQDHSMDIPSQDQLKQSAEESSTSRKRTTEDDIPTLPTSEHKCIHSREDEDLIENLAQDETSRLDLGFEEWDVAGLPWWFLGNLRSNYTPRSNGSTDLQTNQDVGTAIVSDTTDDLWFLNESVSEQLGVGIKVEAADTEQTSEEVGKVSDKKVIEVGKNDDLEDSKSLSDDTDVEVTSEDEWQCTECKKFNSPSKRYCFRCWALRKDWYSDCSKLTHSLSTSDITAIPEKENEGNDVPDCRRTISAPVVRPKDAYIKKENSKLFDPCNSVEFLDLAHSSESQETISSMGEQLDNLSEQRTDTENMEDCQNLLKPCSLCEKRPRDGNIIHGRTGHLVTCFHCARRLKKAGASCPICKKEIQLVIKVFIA
# B3: Speckle-type POZ protein (Homo sapiens), O43791 (parent)
# chain: B1 chain
# partner: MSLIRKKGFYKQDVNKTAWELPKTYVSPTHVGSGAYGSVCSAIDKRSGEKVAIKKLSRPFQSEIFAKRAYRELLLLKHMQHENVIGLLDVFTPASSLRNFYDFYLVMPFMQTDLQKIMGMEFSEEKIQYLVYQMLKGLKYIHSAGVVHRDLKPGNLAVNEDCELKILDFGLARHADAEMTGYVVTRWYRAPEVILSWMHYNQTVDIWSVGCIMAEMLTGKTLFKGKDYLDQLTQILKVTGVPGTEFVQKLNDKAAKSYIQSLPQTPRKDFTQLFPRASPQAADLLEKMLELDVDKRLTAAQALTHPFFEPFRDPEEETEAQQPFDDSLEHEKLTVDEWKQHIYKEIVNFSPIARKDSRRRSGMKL
# B4: Speckle-type POZ protein (Homo sapiens), O43791 (parent)
# chain: B1 chain
# partner: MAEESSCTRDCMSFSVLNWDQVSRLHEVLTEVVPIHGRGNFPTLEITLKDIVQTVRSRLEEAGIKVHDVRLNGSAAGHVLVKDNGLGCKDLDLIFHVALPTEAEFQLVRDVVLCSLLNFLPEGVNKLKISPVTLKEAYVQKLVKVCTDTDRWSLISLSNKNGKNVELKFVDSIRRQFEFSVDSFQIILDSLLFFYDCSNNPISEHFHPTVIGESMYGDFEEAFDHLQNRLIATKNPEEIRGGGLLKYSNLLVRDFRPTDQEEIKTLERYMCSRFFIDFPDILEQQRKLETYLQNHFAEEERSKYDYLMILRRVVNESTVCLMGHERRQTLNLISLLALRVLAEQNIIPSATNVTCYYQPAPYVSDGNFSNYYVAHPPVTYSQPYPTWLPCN
# B5: Speckle-type POZ protein (Homo sapiens), O43791 (parent)
# chain: B1 chain
# partner: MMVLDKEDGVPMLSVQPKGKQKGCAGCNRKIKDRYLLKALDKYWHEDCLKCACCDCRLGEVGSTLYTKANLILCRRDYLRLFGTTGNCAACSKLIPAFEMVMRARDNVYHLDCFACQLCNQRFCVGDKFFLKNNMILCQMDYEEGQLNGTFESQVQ
# B6: Speckle-type POZ protein (Homo sapiens), O43791 (parent)
# chain: B1 chain
# partner: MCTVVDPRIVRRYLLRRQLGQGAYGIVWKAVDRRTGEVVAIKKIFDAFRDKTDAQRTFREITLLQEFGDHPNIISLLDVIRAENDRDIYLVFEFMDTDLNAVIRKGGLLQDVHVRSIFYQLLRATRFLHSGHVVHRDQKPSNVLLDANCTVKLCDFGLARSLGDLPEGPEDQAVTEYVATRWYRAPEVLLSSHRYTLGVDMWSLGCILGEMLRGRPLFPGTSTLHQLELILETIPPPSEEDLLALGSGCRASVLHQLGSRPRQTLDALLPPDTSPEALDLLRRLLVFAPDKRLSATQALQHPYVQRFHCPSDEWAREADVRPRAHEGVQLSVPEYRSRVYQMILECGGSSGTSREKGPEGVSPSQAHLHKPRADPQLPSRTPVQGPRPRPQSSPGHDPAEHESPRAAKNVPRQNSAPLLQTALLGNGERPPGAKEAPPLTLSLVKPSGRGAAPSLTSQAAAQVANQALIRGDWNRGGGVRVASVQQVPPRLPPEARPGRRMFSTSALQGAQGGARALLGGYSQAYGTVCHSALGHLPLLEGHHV
# B7: Speckle-type POZ protein (Homo sapiens), O43791 (parent)
# chain: B1 chain
# partner: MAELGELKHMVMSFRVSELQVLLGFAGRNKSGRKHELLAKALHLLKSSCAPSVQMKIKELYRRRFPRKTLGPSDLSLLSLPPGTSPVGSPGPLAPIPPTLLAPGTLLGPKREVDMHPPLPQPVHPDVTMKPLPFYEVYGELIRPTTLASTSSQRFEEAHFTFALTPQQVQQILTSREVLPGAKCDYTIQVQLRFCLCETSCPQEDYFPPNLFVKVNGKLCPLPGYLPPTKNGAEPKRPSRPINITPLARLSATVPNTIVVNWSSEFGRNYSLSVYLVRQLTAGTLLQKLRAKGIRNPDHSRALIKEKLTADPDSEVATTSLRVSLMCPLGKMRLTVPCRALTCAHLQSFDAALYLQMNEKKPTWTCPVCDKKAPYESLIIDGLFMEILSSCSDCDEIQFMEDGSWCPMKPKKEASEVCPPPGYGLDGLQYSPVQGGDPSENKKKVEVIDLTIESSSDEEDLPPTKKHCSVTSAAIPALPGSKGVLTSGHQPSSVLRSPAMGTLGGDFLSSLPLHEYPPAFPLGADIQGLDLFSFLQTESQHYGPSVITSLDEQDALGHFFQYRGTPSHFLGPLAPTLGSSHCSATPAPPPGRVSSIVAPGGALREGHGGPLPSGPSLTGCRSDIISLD
# Variants of: B1
# Conditions: with ppara_human PPARA
row,Variant,effect of a mutation on the interaction
1,F102C,with no effect

# Variants of: B1
# Conditions: with ppara_human PPARA
# Remark: another data set of the same source
row,Variant,effect of a mutation on the interaction
1,F133V,with no effect

# Variants of: B1
# Conditions: with ppara_human PPARA
# Remark: another data set of the same source
row,Variant,effect of a mutation on the interaction
1,F133L,with no effect

# Variants of: B2
# Conditions: with mdm4_human MDM4, O15151
row,Variant,effect of a mutation on the interaction
1,Y87C,with no effect

# Variants of: B2
# Conditions: with mdm4_human MDM4, O15151
# Remark: another data set of the same source
row,Variant,effect of a mutation on the interaction
1,F102C,with no effect

# Variants of: B2
# Conditions: with mdm4_human MDM4, O15151
# Remark: another data set of the same source
row,Variant,effect of a mutation on the interaction
1,F133L,with no effect

# Variants of: B2
# Conditions: with mdm4_human MDM4, O15151
# Remark: another data set of the same source
row,Variant,effect of a mutation on the interaction
1,F133V,with no effect

# Variants of: B3
# Conditions: with mk13_human MAPK13, O15264
row,Variant,effect of a mutation on the interaction
1,F102C,with no effect

# Variants of: B3
# Conditions: with mk13_human MAPK13, O15264
# Remark: another data set of the same source
row,Variant,effect of a mutation on the interaction
1,F133L,with no effect

# Variants of: B3
# Conditions: with mk13_human MAPK13, O15264
# Remark: another data set of the same source
row,Variant,effect of a mutation on the interaction
1,F133V,with no effect

# Variants of: B3
# Conditions: with mk13_human MAPK13, O15264
# Remark: another data set of the same source
row,Variant,effect of a mutation on the interaction
1,Y87C,with no effect

# Variants of: B4
# Conditions: with tet5c_human TENT5C
row,Variant,effect of a mutation on the interaction
1,Y87C,with no effect

# Variants of: B4
# Conditions: with tet5c_human TENT5C
# Remark: another data set of the same source
row,Variant,effect of a mutation on the interaction
1,F102C,with no effect

# Variants of: B4
# Conditions: with tet5c_human TENT5C
# Remark: another data set of the same source
row,Variant,effect of a mutation on the interaction
1,F133L,with no effect

# Variants of: B4
# Conditions: with tet5c_human TENT5C
# Remark: another data set of the same source
row,Variant,effect of a mutation on the interaction
1,F133V,with no effect

# Variants of: B5
# Conditions: with rbtn1_human LMO1, P25800
row,Variant,effect of a mutation on the interaction
1,F102C,with no effect

# Variants of: B5
# Conditions: with rbtn1_human LMO1, P25800
# Remark: another data set of the same source
row,Variant,effect of a mutation on the interaction
1,F133V,with no effect

# Variants of: B5
# Conditions: with rbtn1_human LMO1, P25800
# Remark: another data set of the same source
row,Variant,effect of a mutation on the interaction
1,F133L,with no effect

# Variants of: B5
# Conditions: with rbtn1_human LMO1, P25800
# Remark: another data set of the same source
row,Variant,effect of a mutation on the interaction
1,Y87C,with no effect

# Variants of: B6
# Conditions: with mk15_human MAPK15, Q8TD08
row,Variant,effect of a mutation on the interaction
1,F133V,with no effect

# Variants of: B6
# Conditions: with mk15_human MAPK15, Q8TD08
# Remark: another data set of the same source
row,Variant,effect of a mutation on the interaction
1,F133L,with no effect

# Variants of: B6
# Conditions: with mk15_human MAPK15, Q8TD08
# Remark: another data set of the same source
row,Variant,effect of a mutation on the interaction
1,Y87C,with no effect

# Variants of: B6
# Conditions: with mk15_human MAPK15, Q8TD08
# Remark: another data set of the same source
row,Variant,effect of a mutation on the interaction
1,F102C,with no effect

# Variants of: B7
# Conditions: with pias3_human PIAS3, Q9Y6X2
row,Variant,effect of a mutation on the interaction
1,F102C,with no effect
